Test results published in the nanobody polyreactivity screen of Harvey et al. (2022).

Assay: yeast display, Sf9 membrane polyspecificity reagent, FACS + sequencing; frameworks hold sequencing errors
Method in brief: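 Nanobodies from a synthetic yeast display library (Saccharomyces cerevisiae BJ5465), induced 36–48 hours with galactose, were stained 1 hour at 4 °C with 10% biotinylated, detergent-solubilized Sf9 membrane reagent, enriched on streptavidin microbeads, then FACS-sorted. Anti-HA (expression) and streptavidin (reagent binding) fluorescence set low and high (top ~1%) gates. Polyreactivity labels come from the gate of origin. Genes were colony-PCR amplified, MiSeq 2 × 250 sequenced and filtered by CDR length.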

Row | Sequence | polyreactivity (PSR sort gate)
1 | QVQLVETGGGLVQAGGSLRLSCAASGRTMPYYAMGWYRQAPGKERELVATISSRGGSTYYADSVKGRFTISRDNAKNTVYLQMNSLKPEDTAVYYCAARGNTPRTRRYGYWGQGTQVTVSS | high polyreactivity
2 | QVQLVESGGCLVQAGGSLRLSCAASRITFRWYAMGWYRQAPGKDRELVAAISRSGASTYYADSVKGRFTISRDNAKNTVYLQMNSLKPEDTAVYYCAKEKTTYYWATYDYWGQGTQVTVSS | high polyreactivity
3 | QVQLVESGGGLVQAGGSLRLSCAASGRILYGNAMGWYRKAPGKERELVAAITRRGGSTYYADSVKGRFTISRDNAKNTVYLQMNSLKPEDTAVYYCNKVVGYRDTDFDYWGQGTQVTVSS | high polyreactivity
4 | QVQLVESGGGLVQAGGSLRLSCAASVRIFGSNVMGWYRQAPGKERELVASISSGGTTYYADSVKGLFTISRDNAKNTVYLQMNSLKPEDTAGYYCAKQWTRIYQYRWYPGTRTGYDYWGHGTQVTVSS | high polyreactivity
5 | QVQLLESVGGLVQAGGSLRISCAASGIIFKSYAMGWYRQAPGKERELVAAISSGGSTYYVDSVKGRFTISRDNAKNTVYLQMNSLKPEDTAVYYCAAYGKYQGYGHWGQGTQVTVSS | high polyreactivity
6 | QVQLVESGGGLVQAGGSLRISCAASGYNSYSNAMGWYRQAPGKERELVASILSGGSTNYADSVKGRFTISRDNAKNTVYLQMNSLKPEDTAVSYCATRVRTRTGYQYYYWGQGTQVTVSS | high polyreactivity
7 | QVQLVESGGGLVQAGGSLRLSCAASGGTFQDYGMGWYRQAPGKERELVAAITWSGGSTYYADSVKGRFTISRDNAKNTVYLQMNSLKPEDTAVYYCAAVYADVYLYLTAYDYWGQGTQVTVSS | low polyreactivity
8 | QVKLVESGGGLVKAGGRLRLSCAASGSTFRKYTMGWYRQAPWKERELVAAITYRGDRTYYADSVKGRFTISRDNAKNNVYLQMNSLKQEDTAVYYCAAVYVRGDRYDYWGQGTQVTVSS | high polyreactivity
9 | QVQLVESGGGLVQAGGSLRLSCAASGSTFRPYAMGWYRQAPGKERELVAAISSGDSTYYADSVKGRFTISRDNAKNTVYLQMNSPKREDTAVYYCAKRNYWHRGGGYWGQGTQVTVSS | high polyreactivity
10 | QVQLVESGGGLVQAGGSLRLSCAASGSTFWGYTMGWYRQAPGKERELVAAISTIGGSTYYADSVKGRFTISRDNAKNTVYLQMNSLKPEDTAVYYCAAEVYTFSGTSWVKDGGYWGQGTQVTVSS | low polyreactivity
11 | QVKLVDSGGGLVQAGGSLRLSCAASGRTFRYYTMGWYRQAPGTERELVAAITRNVGRTYYADSVKGRFTISRDNAKNTVYLQMNSLKPEDTAVYYCAAGTYDGGYHYDYWGQGTQLTVSS | high polyreactivity
12 | QVQLVESGGGLVQAGGSLRLSCAASGSTFKRNAMGWYRQAPGKERELVATITRRGGSTYADSVKGRFTISRDNAKNTVYLQMNSLKPEDTAVYYCARDGFSAGMDYWGQGTQVTVSS | low polyreactivity
13 | QVQLVESGGGIVQAGGSLRLSCAASGNIFHQNAMGWYRQAPGKERELVAAISGSAGSTYYADSVKGRFTISRDNAKNTVYLQMNSLKPEDTAVYYCAADYYWLYNYWGQGTQVTVSS | high polyreactivity
14 | QVQLVESGGGLVQAGGSLRLSCAASGSTSETYAMGWYRQAPGKERELVAAISGNGASTYYADSVKGRFTISRDNAKNTVYLQMNSLKPDDTAVYYCAAYFYYWGSTFVRYEYWGQGTQVTVSS | high polyreactivity
15 | QVQLVESGGGLVQAGGSLRLSCAASGSIFPYNVMGWYRQAPGKERELVAAISTRGGRTYYADSVKGRVTISRDNAKNTVYLQMNSLKPEDTAVYDCATAGGPYSASGYYGGQGTQVTVSS | high polyreactivity
16 | QVQLVESGGGIVQAGGSLRLSCAASGRIFVLNAMGWYRQAPGKERELVAAISKSAGSTYYADSVKGRFTISRDNAKNTVYLQMNSLKPEDTAVYYCNVGRRGHYLDAYDYWGQGTQVTVSS | high polyreactivity
17 | QVQLVESGGGLVQAGGRLRLSCAASGITFSYYAMGRYRQAPGKERELVAAISSGGRTYYADSVKGRFTISRDNAKNTVYLQMNSLKQEDTAVYYCAASFLVTSREYDYWGQGTQVTVSS | high polyreactivity
18 | QVHLVDSGGGLVQAGGSLRLSCPASGFIFGLYVMGCYRQSPGKERELVAAITTSVGSTYYADSVKGRFTISRDNAKNTVYLQMNSLKPEDTSVYYCAKTSGTIDYDYWGQGTQVTVSS | low polyreactivity
19 | QVQLVESGVGLVQAGGSLRLICDASGRIYSYYAIGWYRQAPGKETELVASISRSGGSTYYADSVKGRFTISRDNAKNTVYLQMNSLKPEETAVYYCAAYKYVRSYPYDYWGQGTQVTVSS | low polyreactivity
20 | QVQLVESGGGLVQAGGSLRLSCADSGFIFTVNAMGWYRQAPGKERELVAAITSGGNTYYADSVKGRFTISRDNAKNTVYLQMNSLKPEDAAVYYCNAVFYTWSPYGTTVRSYGYWGQGTQVTVSS | high polyreactivity
21 | QVQLVESGGDLVQAGGSLRLSCAASGRSYKYNDMGWYRQAPRKERELVADISSGVSTYYADSVKGRFTISRDNAKNTVYLQMNSLKPEDTAVYYFNAYSDGDEDYWGQGTQVTVSS | low polyreactivity
22 | QVQLEESGGGLVQAAGSLRLRCAASGSTLTFNAMGWYRHAPGKERELVAAISWSDTDTYYADSVKGRFTISRDNAKNTVYLQMNSLKPEDTAVYYCASTLSAYEMDYWGQGTQVTVSS | low polyreactivity

Row | Sequence | polyreactivity (PSR sort gate)
23 | QVKLVESAGGLVQAGGSLRLSCAASGSIFNPYDMGWYRQAPGKERELVAAIDWSGGSTYYADSVKGRFTISRDNAKNTVYLQMNSLKPEDTAVYYCNAESYQDTLFGADNDYDYWGQGTQVTVSS | low polyreactivity
24 | QVQLVVSGGGLVQAGGSLRLSCAASGNIFESYGMGGYRQAPGKERELVANINTSCGSTYYADSVKGRFTISRDNAKNTVYLQMNSLKPEDTAVYYCAAEWYPYPWGYGYWGQGTQVTVSS | low polyreactivity
25 | QVQLVETGGGLVQAGGSLRLSCAPSGSIFGLNAMGWYRQAPGKERELVAAINTDGDTYYADSVKGRFTISRDNAKNTVYLQMNSLIPEDTAVFYCAADYYWDPFDSNFGHVPQEYESWGQGTQVTVSS | low polyreactivity
26 | QVQLVESGGGLVQAGGSLRLSCAASGFIFRYYAMGWLRQAPGKERELVAAISWSGGNTYYADSVKGRFTISRDNAKNTVYLQMNSLKPEDTAVYYCAARVARISVPYDYWGQGTQVTVSS | low polyreactivity
27 | QVQLVESGGGLVQEGGSLRLSCAASGFIFAWYDMGWYRQAPGKERELVAAISYYGGSTYYADSVKGRFTISRDNAKNTVYLQMNSLKPVDTAVYYCIKVSRGGSYGDAFDYWGQGTQVTVSS | high polyreactivity
28 | QVQLVESGGGLVQAGGSLRLSCAASGRTFGYYAMGWYRTAPGKERELVAAIRSTGSTNYADSVKGRFTISRDNAKNTVYLQMNSLKPEDTAVYYCNAKRRFRYDYWGQGTQVTVSS | low polyreactivity
29 | QVQLVESGGGLVQAGGSLRLSCAASGRIFPRNAMGWYRQAPGKERELVASITSGGSTNYADSVKGRFTNSRDNAKNTVYLQMNSLKPEDTAVYSCAALYRQVTSPYRYYYWGQGTQVTVSS | high polyreactivity
30 | EVQLVESVGGLVHAGGSLGLSFAASGSIFDRNAMGWYRQAPGKERELVAAISVSGGSTYYADSVKGRFTISRDNAKNTVYLQMNSLKPEDTAVYYCDKAGRYANLPYGYWGHGTQVTVSS | high polyreactivity
31 | QVQLVESGGGLVQAGGSLRLSCAASGFTFTYYAMGWYRQAPGKERELVAAITKSGGSTYYADSVKGRFTISRDNAKNTVYLQMNSLKPEDTAVYYCAADTRYGRERYYWGQGTQVTVSS | high polyreactivity
32 | QVQLVESGGGLDQAGGSLRLSCAASGSIFRSYAMGWYRQAPGKERELVATIDRSGGSTYYADSVKGRFTISRDNAKNTVYLQMNSLKPEDTAVYYCNKTPHFPRPGFNYWGQGTQVTVSS | low polyreactivity
33 | QVQLVESGGGLVQAGGSLRLRCAASGLIFGTYAMGWYRQAPGKERELVATISQIGGSTYYADSVKGRFTISRDNAKNTVYLEMNSLKPEETAVYYCAVDGGEFSSYGYWGQGTQVTVSS | low polyreactivity
34 | QVQLEESGGGLVQAGGSLRLSCAASGRNFYYNAIGWYRQAPGKERELVATITRAGGTYYADSVKGRFTISRDNAKNTVYLQMNSLKPEDTAVYYCAKRHPIVDDYKGDYWGQGTQVTVSS | low polyreactivity
35 | QVQLVESGGGLVQAGGSLRLSCAASGGTFYGYAMGWYRQAPGKERELVAAITSGDSTNYADSVKGRFTISRDNAKNTVYLQMNNLKPEDTAVYYCAAGDPTLLNESFDYWGQGTQVTVSS | low polyreactivity
36 | QVQLVESGGGLVQAGGSLRLSCAASGSTFRYYAMGWYRQAPGKERELVAAITRSGSTYYADSVKGRFTISRDNAKNTVYLQMNSLKREDTAVYYCNADQYYGGRYVYLRHYNYWGQGTQVTVSS | high polyreactivity
37 | QVQLVESGGGLVQAGGSLRLSCAASGRTFYPNAMGWYRQAPGKERELVAAISWSGGSTYYADSVKGRFTISRDNAKNTVYLQMNSLKPEDTAVYYCNARYLYWALSYDYWGQGTQVTVSS | low polyreactivity
38 | QVQLVESGGGLVQAGGSLRLSCAASGSIFLTYTMGWYRQATGKERELVAAITDSDGSTSYADSVKGRFTISRDNAKNTVYLQMNSLKPEDTAVYYCAVEGYWYAGWYAMDYWGQGTQVTVSS | low polyreactivity
39 | QVQLVESGGGLVQAGGSLRLSCAASGSIFGVNAMGWYRQAPGKERELVAAISSSTGRTYYADSVKGRFTISRDNAKNTVYLQMNSLKPEDTAVYYCAADFTSYRRGWTYGYWGQGTQVTVSS | high polyreactivity
40 | QVQLVESGGGLVQAGCSLRLSCAASGIIFAWYAMGWYRQAPGKERELVAGISQSGGRTYYADSVKGRFTISRDNAKNTVYLQMNSLKPEDTAVYYCAAERPYSRVGYYYWGQGTQVTVSS | high polyreactivity
41 | QVQLVESGGGLVQAGGSLRLSCAASGITFYRYAMGWYRQAPGKERELVAAISRSGGSTYYADSVKGRFTISRDNAKNTVYLQMNSLKPEDTAGYYCAAYILGNRDGYEYWGQGTQVTVSS | high polyreactivity
42 | QVQLVESGGGLVQAGGSLRLSCAASGIIFIYYDMGWYRQAPGKERELVAAISRSGGSTYYADSVKGRFTISRDIAKNTFYLQMNSLKPEDTAVYYCAARRITSTDEYYWGHGTQVTVSS | high polyreactivity
43 | QVQLVESGGGLVQEGGSLRLSCAASGITFAFYTMGRYRQAPGKERELVAAISYSGGRTYYADSVKGRFTISRDNAMNTVYLQMNSLKAEDTAVYYCAVETWWDYDYWGQGTQVTVSS | high polyreactivity
